Results as given in paper PMC4653696.
pKd: −log10 of the molar value.

Key:
Assay in all cases: FRET or BRET; 25 nM donor (AF555)-labelled octamers titrated with acceptor (AF647)-labelled octamers, serial dilutions from 100 nM; 45 mM KCl, 50 mM Tris-HCl pH 8.0; room temperature, 1 h equilibration; triplicate; PCA and curve fit; apparent Kd of end-to-end association of rods
[1] = molecular target: Cdc11(E294C ΔCTE)-capped, otherwise Cys-less septin hetero-octamer (S. cerevisiae) (UniProt P32458)
[2] = molecular target: Cdc11(E294C)-capped, otherwise Cys-less septin hetero-octamer (Cdc11-Cdc12-Cdc3-Cdc10-Cdc10-Cdc3-Cdc12-Cdc11) (S. cerevisiae) (UniProt P32458)
Sequence of Cdc11(E294C)-capped, otherwise Cys-less septin hetero-octamer (Cdc11-Cdc12-Cdc3-Cdc10-Cdc10-Cdc3-Cdc12-Cdc11) (S. cerevisiae) (P32458 whole entry C43F/C137A/C138A/E294C, chain 1 of 4): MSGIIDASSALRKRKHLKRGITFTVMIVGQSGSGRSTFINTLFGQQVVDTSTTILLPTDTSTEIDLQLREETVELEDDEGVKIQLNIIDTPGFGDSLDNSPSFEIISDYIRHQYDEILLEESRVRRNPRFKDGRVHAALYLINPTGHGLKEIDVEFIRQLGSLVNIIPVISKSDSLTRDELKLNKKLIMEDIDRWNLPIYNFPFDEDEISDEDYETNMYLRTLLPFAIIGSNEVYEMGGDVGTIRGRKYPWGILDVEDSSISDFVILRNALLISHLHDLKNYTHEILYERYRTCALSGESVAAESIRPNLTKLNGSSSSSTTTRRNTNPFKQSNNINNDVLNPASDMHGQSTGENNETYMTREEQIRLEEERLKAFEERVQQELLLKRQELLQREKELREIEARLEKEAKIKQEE
Sequence of Cdc11(E294C)-capped, otherwise Cys-less septin hetero-octamer (Cdc11-Cdc12-Cdc3-Cdc10-Cdc10-Cdc3-Cdc12-Cdc11) (S. cerevisiae) (P32468 whole entry C40A/C278S, chain 2 of 4, further chain): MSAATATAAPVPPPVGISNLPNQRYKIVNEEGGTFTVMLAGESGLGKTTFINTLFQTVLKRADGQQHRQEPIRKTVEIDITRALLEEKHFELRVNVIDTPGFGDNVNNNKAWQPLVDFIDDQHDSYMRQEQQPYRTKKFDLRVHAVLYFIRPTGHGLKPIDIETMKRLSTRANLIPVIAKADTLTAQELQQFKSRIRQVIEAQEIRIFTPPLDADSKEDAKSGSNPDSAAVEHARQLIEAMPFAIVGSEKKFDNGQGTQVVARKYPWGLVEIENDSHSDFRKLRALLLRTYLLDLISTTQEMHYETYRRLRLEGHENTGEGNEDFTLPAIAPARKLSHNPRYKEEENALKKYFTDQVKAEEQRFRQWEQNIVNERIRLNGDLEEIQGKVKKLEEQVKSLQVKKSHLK
Sequence of Cdc11(E294C)-capped, otherwise Cys-less septin hetero-octamer (Cdc11-Cdc12-Cdc3-Cdc10-Cdc10-Cdc3-Cdc12-Cdc11) (S. cerevisiae) (P32457 other isoform, or with tags, fused parts or gaps E294C, chain 3 of 4, further chain): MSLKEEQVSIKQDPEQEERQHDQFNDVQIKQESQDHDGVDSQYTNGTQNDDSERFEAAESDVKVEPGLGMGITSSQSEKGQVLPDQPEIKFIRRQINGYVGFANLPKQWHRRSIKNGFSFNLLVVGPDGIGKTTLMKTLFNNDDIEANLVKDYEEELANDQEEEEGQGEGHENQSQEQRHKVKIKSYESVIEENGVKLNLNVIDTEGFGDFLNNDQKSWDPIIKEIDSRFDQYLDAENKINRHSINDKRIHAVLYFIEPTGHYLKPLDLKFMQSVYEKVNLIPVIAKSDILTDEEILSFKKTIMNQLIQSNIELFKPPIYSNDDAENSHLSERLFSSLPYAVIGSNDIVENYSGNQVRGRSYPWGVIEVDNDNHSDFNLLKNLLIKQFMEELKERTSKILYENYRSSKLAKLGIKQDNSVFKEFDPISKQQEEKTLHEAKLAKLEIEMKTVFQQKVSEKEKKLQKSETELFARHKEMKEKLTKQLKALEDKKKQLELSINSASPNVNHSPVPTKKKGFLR
Sequence of Cdc11(E294C)-capped, otherwise Cys-less septin hetero-octamer (Cdc11-Cdc12-Cdc3-Cdc10-Cdc10-Cdc3-Cdc12-Cdc11) (S. cerevisiae) (P25342 whole entry C266S, chain 4 of 4, further chain): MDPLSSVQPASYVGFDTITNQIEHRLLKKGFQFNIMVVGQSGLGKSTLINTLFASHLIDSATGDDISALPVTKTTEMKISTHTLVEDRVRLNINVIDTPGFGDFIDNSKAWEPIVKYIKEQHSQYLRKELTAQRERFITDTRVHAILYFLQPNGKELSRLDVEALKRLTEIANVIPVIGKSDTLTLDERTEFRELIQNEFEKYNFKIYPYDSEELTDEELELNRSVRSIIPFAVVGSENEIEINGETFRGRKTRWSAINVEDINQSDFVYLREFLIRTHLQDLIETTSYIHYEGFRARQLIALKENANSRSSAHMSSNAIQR

[3] = molecular target: Shs1(E344C)-capped, otherwise Cys-less septin hetero-octamer (Shs1-Cdc12-Cdc3-Cdc10-Cdc10-Cdc3-Cdc12-Shs1) (S. cerevisiae) (UniProt Q07657)
Sequence of Shs1(E344C)-capped, otherwise Cys-less septin hetero-octamer (Shs1-Cdc12-Cdc3-Cdc10-Cdc10-Cdc3-Cdc12-Shs1) (S. cerevisiae) (Q07657 whole entry C29V/C148S/E344C, chain 1 of 4): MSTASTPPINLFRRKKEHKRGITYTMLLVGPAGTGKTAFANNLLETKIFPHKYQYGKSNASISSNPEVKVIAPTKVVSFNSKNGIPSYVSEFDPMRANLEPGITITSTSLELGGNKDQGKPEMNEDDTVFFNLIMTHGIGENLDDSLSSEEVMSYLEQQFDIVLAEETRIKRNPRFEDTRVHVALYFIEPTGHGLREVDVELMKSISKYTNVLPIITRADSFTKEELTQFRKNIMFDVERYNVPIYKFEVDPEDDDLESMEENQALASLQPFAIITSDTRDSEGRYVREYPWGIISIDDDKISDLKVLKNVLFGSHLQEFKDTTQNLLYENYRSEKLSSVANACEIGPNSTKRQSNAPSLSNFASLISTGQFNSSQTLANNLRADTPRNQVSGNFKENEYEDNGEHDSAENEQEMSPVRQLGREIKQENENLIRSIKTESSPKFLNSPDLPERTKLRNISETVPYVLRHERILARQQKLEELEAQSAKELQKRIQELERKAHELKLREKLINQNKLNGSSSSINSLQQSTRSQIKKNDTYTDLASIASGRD
Sequence of Shs1(E344C)-capped, otherwise Cys-less septin hetero-octamer (Shs1-Cdc12-Cdc3-Cdc10-Cdc10-Cdc3-Cdc12-Shs1) (S. cerevisiae) (P32468 whole entry C40A/C278S, chain 2 of 4, further chain): as the sequence (P32468 whole entry C40A/C278S, chain 2 of 4, further chain) above
Sequence of Shs1(E344C)-capped, otherwise Cys-less septin hetero-octamer (Shs1-Cdc12-Cdc3-Cdc10-Cdc10-Cdc3-Cdc12-Shs1) (S. cerevisiae) (P32457 other isoform, or with tags, fused parts or gaps E344C, chain 3 of 4, further chain): as the sequence (P32457 other isoform, or with tags, fused parts or gaps E294C, chain 3 of 4, further chain) above
Sequence of Shs1(E344C)-capped, otherwise Cys-less septin hetero-octamer (Shs1-Cdc12-Cdc3-Cdc10-Cdc10-Cdc3-Cdc12-Shs1) (S. cerevisiae) (P25342 whole entry C266S, chain 4 of 4, further chain): as the sequence (P25342 whole entry C266S, chain 4 of 4, further chain) above

[4] = molecular target: Shs1(E344C ΔCTE)-capped, otherwise Cys-less septin hetero-octamer (S. cerevisiae) (UniProt Q07657)
Sequence of Shs1(E344C ΔCTE)-capped, otherwise Cys-less septin hetero-octamer (S. cerevisiae) (Q07657 1-348 C29V/C148S/E344C, chain 1 of 4): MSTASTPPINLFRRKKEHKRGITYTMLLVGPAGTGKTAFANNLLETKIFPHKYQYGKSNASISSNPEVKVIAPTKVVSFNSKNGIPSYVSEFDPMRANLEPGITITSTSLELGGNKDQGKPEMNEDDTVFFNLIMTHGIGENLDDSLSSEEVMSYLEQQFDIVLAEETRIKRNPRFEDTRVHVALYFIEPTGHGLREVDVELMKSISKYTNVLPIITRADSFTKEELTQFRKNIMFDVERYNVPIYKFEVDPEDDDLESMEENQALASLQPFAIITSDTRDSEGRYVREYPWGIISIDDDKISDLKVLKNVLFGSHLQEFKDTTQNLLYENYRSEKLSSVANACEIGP
Sequence of Shs1(E344C ΔCTE)-capped, otherwise Cys-less septin hetero-octamer (S. cerevisiae) (P32468 whole entry C40A/C278S, chain 2 of 4, further chain): as the sequence (P32468 whole entry C40A/C278S, chain 2 of 4, further chain) above
Sequence of Shs1(E344C ΔCTE)-capped, otherwise Cys-less septin hetero-octamer (S. cerevisiae) (P32457 other isoform, or with tags, fused parts or gaps E344C, chain 3 of 4, further chain): as the sequence (P32457 other isoform, or with tags, fused parts or gaps E294C, chain 3 of 4, further chain) above
Sequence of Shs1(E344C ΔCTE)-capped, otherwise Cys-less septin hetero-octamer (S. cerevisiae) (P25342 whole entry C266S, chain 4 of 4, further chain): as the sequence (P25342 whole entry C266S, chain 4 of 4, further chain) above

pKd [1]: 7.75 | pKd [2]: 7.62 | pKd [3]: 7.65 | pKd [4]: 7.64
Substance: Cdc11(E294C ΔCTE)-capped, otherwise Cys-less septin hetero-octamer (from UniProt P32458 1-305; P32468 1-407; P32457 1-520; P25342 1-322) (complex)
